From article PMC4975481, “Importance of Hypervariable Region 2 for Stability and Affinity of a Shark Single-Domain Antibody Specific for Ebola Virus Nucleoprotein” (PLoS ONE, 2016)

Biological target: T1, Ebola virus Viral Protein 40 (Ebola virus (Zaire ebolavirus), strain …, UniProt Q05128)
T1 construct: also called VP40; VP 40; source: bought: IBT Bioservices
Experiment: SPR
Settings: both partners purified

T1 sequence (Q05128 whole entry): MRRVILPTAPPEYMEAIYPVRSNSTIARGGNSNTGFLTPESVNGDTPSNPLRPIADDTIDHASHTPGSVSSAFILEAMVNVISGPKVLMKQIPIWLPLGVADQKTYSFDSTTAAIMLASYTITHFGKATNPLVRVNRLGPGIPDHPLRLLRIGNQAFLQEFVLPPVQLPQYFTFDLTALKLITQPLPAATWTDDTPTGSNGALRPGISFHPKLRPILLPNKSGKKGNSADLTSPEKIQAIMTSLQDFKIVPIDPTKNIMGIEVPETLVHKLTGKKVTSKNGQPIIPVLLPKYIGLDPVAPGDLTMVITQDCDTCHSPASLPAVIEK

B1: shark096 (VHH)
VHH: RVDQTPRSVTKETGESLTINCVLRDASYAVGSTCWYRKKSGSTNEESISKGGRYVETVNSGSKSFSLRINDLTVEDGGTYRCGVSTYNWCGVRGLGCVHGACGDGTAVTVN
notes: also called unfused sdAb portion of DSTL096; parental sdAb
Does B1 bind?
Result: no binding
